# B1: Apoptosis regulator BHRF1 (Epstein-Barr virus (strain B95-8) (HHV-4)), P03182 (parent)
# chain: MAYSTREILLALCIRDSRVHGNGTLHPVLELAARETPLRLSPEDTVVLRYHVLLEEIIERNSETFTETWNRFITHTEHVDLDFNSVFLEIFHRGDPSLGRALAWMAWCMHACRTLCCNQSTPYYVVDLSVRGMLEASEGLDGWIHQQGGWSTLIEDNIPGSRRFSWTLFLAGLTLSLLVICSYLFISRGRH
# B2: Apoptosis regulator BHRF1 (Epstein-Barr virus (strain B95-8) (HHV-4)), P03182 (parent)
# chain: B1 chain
# partner: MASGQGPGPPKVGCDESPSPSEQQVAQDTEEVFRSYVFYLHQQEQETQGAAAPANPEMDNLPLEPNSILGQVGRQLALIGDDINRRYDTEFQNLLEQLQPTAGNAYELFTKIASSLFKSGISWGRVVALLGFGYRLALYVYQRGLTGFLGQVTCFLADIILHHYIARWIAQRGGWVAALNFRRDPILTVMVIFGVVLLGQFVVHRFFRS
# Variants of: B1
# Conditions: with Bcl2l11, O54918
# Sequence of Bcl2l11, O54918 (O54918 whole entry): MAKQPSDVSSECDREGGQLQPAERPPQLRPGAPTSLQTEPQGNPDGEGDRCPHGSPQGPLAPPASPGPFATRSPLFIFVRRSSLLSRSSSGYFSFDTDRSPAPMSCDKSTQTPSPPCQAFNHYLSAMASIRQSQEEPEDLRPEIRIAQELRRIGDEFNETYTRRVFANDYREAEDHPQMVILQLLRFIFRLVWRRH
row,Variant,effect of a mutation on the interaction
1,G99A,decreasing interaction strength

# Variants of: B2
# Conditions: with bak_mouse Bak1, O08734
row,Variant,effect of a mutation on the interaction
1,R100A,decreasing interaction strength
2,L98A;G99A;R100A,disrupting interaction strength
3,G99A,decreasing interaction strength
4,L98A,decreasing interaction strength

# From IntAct's records for PubMed 19293378
